Results from patent EP3007726B1.

Target: tau of P301L tau transgenic mice (4R2N human tau mutated at P301L) (human) (UniProt P10636)
Assay: free-tau ELISA on CSF of P301L mice treated with IPN002, against control IgG (Figure 33)

Chain of UniProt P10636 (P10636 other isoform, or with tags, fused parts or gaps P301L P301L P301L P301L limits assumed): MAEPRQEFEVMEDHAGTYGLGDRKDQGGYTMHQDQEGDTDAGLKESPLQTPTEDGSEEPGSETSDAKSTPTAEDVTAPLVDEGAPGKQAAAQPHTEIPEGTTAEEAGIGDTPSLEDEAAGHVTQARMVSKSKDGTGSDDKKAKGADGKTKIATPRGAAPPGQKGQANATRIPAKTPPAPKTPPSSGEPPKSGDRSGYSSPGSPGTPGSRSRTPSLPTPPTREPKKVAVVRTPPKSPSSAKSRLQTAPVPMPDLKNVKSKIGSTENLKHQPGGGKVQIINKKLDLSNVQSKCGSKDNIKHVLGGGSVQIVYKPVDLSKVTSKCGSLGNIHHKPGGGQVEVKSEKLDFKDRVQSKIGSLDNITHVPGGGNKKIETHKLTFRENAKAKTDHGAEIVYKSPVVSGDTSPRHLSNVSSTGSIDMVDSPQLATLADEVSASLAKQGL

reduction in levels of the Free Tau (of IPN002) signal in CSF: 96%
B1: IPN002 (antibody, V domains shown)
VH: EVHLVESGGALVKPGGSLKLSCAASGFSFSKYGMSWVRQTPDKRLEWVATISSSGSRTYYPDSVKGQFTISRDNAKNTLYLQMSSLKSEDTAMYYCSISWDGAMDYWGQGTSVTVSS
VL: DVLMTQTPLSLPVSLGDQASISCKSSQSIVHSNGNTYLEWYLQKPGQSPKLLVYKVSNRFSGVPDRFSGSGSGTDFTLKISRVEAEDLGTYYCFQGSLVPWAFGGGTKLEIK
